Experimental data: patent CN114634565A

How the values were obtained:
[1] = target: 裂谷热病毒Gn蛋白 (GenBank: DQ380208.1) (裂谷热病毒 (Rift Valley fever virus))
[2] = target: 裂谷热病毒Gn蛋白 (GenBank: DQ380208.1) (裂谷热病毒 (Rift Valley fever virus)); remark: listed apart in the source
[3] = target: 裂谷热病毒Gn蛋白 (GenBank: DQ380208.1) (裂谷热病毒 (Rift Valley fever virus)); remark: listed apart in the source

B1: 抗裂谷热病毒的单克隆抗体E44 (antibody, V domains shown)
VH: QVQLQQWGEGLVNPSEALSLTCAVYGDSISDDYHWSWIRQPPGKGLEWIGYIFGSSAGTNYNPSLKNRVTISKDTSKNQFSLELTSVTAADTAVYYCARDVTTDRLDVWGPGVPVTVSS
VL: NFMLTQPPSVSADQGQRVTISCSGSSFNVRRYYVSWYQQVPGAAPKLLISDVNKRPSGVSDRFSGSQSGTSATLGISGLRPEDEADYYCSVWDSSLGARVFGGGTRLTVLG
[1]
  OD值 (OD450nm-OD630nm): 2.35
[2]
  EC50: 2.66 ng/mL
[3]
  Kd: 2.58 nM
